Source: patent publication US7413903B2, “Methods of regulating differentiation in stem cells” (ES Cell International PTE Ltd., priority 2002, dated 2008)

Tested on: hES cells
Assay: GCTM-2 quantification (alkaline phosphatase-coupled secondary antibody, OD 405 nm)
Format: cell-based, human
Excerpt: hES-3 cells plated with MEF, were fixed in ethanol and immunostained with GCTM-2 and then with an alkaline phosphatase-coupled secondary antibody (Dako). The activity of alkaline phosphatase was detected by adding a solution of 4-nitrophenyl phosphate (Roche, Mannheim, Germany), followed by reading the optical density (OD) at 405 nm. In order to validate the technique as a relevant indicator of the proportion of GCTM-2 positive cells, standard curves were done with the teratocarcinoma cell line GCT27C4, known to express GCTM-2.
Cells were fixed in 100% ethanol and immunostained with GCTM-2 followed by alkaline phosphatase-coupled secondary antibodies (Dako). Alkaline phosphatase activity was detected by adding a solution of 4-nitrophenyl phosphate (Roche), and the concentration of the reaction product was determined by reading the optical density (OD) at 405 nm. In order to validate the technique as an accurate indicator of the proportion of GCTM-2 positive cells, standard curves were carried out with the embryonal carcinoma cell line GCT27C4, known to express GCTM-2 ^20.

B1: PDGF-BB: Human platelet-derived growth factor isoform BB (protein, UniProt P01127 82-190, looked up)
Platelet-derived growth …: SLGSLTIAEPAMIAECKTRTEVFEISRRLIDRTNANFLVWPPCVEVQRCSGCCNNRNVQCRPTQVQLRPVQVRKIEIVRKKPIFKKATVTLEDHLACKCETVAAARPVT
GCTM2 levels, PDGF isoform added with S1P (Example 1, isoform added with S1P): 182.0±26.0 % of control | GCTM2 expression, PDGF isoform with S1P (Example 2, 2 weeks, isoform 20 ng/ml together with S1P): 294.3±77.3 % of control
